Assay [1] deals with beta-catenin (Homo sapiens (Human)) (UniProt P35222). Put plainly: fluorescence polarization competition; full-length beta-catenin with 5FAM-TCF4(10-53) probe as competitor.
Assay [2] concerns the target full-length beta-Catenin (Uniprot ID P35222) (Homo sapiens (Human)) (UniProt P35222). Put plainly: fluorescence polarization competition; 5FAM-TCF4(10-53) probe displaced from full-length beta-catenin.
Target sequence in this assay (P35222 2-781 limits assumed): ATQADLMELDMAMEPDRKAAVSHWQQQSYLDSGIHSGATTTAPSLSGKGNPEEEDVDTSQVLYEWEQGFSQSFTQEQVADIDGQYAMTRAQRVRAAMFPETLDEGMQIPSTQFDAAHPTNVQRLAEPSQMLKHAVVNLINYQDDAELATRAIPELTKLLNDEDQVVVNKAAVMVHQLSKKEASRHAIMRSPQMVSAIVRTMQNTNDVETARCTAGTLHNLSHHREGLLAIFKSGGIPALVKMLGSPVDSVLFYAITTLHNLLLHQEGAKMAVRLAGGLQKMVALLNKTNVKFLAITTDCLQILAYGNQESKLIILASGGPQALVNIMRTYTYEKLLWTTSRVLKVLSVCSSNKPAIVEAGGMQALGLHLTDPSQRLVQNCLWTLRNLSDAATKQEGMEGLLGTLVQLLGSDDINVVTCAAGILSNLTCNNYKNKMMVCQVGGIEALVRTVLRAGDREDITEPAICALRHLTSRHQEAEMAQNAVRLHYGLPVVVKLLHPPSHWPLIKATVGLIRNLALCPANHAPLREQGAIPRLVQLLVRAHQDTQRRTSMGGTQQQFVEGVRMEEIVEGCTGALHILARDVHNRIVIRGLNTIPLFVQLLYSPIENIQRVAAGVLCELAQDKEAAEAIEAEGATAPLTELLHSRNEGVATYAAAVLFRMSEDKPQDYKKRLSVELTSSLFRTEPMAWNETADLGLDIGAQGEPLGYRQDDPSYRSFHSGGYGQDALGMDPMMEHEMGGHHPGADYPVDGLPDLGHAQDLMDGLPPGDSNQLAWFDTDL
The target is the same in assay [3]. The assay is described as follows: fluorescence polarization competition; full-length beta-catenin, competitor 5FAM-TCF4(10-53) probe.
Target sequence in this assay (P35222 whole entry, one chain of several): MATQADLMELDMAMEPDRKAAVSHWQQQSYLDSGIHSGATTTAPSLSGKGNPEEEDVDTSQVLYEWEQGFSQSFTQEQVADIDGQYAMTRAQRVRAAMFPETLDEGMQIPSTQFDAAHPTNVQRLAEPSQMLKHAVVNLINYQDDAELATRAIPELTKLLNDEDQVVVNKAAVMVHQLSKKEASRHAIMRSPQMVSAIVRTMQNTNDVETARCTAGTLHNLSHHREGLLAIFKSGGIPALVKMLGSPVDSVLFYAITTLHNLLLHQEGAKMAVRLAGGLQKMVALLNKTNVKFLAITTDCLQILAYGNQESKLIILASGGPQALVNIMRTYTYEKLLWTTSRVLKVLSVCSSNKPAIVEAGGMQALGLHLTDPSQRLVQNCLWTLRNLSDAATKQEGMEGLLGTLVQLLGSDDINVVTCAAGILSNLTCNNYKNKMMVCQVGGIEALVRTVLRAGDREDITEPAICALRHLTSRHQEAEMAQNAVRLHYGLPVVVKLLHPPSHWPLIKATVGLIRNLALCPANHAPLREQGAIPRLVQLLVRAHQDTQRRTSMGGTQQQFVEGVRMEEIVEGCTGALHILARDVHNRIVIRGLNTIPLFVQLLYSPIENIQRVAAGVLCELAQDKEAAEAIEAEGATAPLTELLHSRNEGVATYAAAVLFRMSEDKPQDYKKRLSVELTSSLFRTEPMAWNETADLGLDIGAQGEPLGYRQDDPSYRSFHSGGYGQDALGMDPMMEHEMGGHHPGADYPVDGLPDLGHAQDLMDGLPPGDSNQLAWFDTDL
Assay [4] shares this target. Put plainly: competition fluorescence polarization; full-length beta-catenin, 5FAM-TCF4(10-53) probe as competitor.
Target sequence in this assay (P35222 whole entry, one chain of several): as above
For assay [5] the target is unchanged. Put plainly: fluorescence polarization competition; 10 nM full-length beta-catenin + 10 nM 5FAM-TCF4(10-53) as competitor probe; peptide titrated.
Target sequence in this assay (P35222 2-781 limits assumed): as the sequence (P35222 2-781 limits assumed) above
For assay [6] the target is unchanged. Put plainly: fluorescence polarization competition; displacement of 5FAM-TCF4(10-53) from full-length beta-catenin.
Target sequence in this assay (P35222 whole entry, one chain of several): as the sequence (P35222 whole entry, one chain of several) above
The next assay deals with Bcat-Halo (UniProt P35222). Put plainly: NanoBRET in HEK293 cells (Bcat-Halo / TCF4-Luc), absolute IC50; competitor: TCF4-Luc.
Sequence of Bcat-Halo (P35222 whole entry): as the sequence (P35222 whole entry, one chain of several) above
Assay [7] concerns the target full-length beta-Catenin (Uniprot ID P35222) (Homo sapiens (Human)) (UniProt P35222). Put plainly: fluorescence polarization competition; full-length beta-catenin; competitor displaced: 5FAM-TCF4 10-53.
Target sequence in this assay (P35222 2-781 limits assumed): as the sequence (P35222 2-781 limits assumed) above
For assay [8] the target is unchanged. The assay is described as follows: fluorescence polarization competition; full-length beta-catenin + 5FAM-TCF4(10-53) probe; peptide titrated.
Target sequence in this assay (P35222 2-781 limits assumed): as above
The target is the same in assay [9]. Put plainly: fluorescence polarization competition; full-length beta-catenin; competitor 5FAM-TCF4(10-53) probe.
Target sequence in this assay (P35222 whole entry, one chain of several): as the sequence (P35222 whole entry, one chain of several) above
Assay [10] shares this target. The assay is described as follows: fluorescence polarization competition, displacement of 5FAM-TCF4 10-53 from full-length beta-catenin.
Target sequence in this assay (P35222 2-781 limits assumed): as the sequence (P35222 2-781 limits assumed) above

Starred links: 1 amine or outer side, 2 acyl side, 3 side chain; linkers in the order of their positions; H or OH if unused. Positions of bridges follow the written chain, without caps; N, C: chain ends. Non-standard residues stand in square brackets, D forms with d. Primed or numbered codes have the meaning given here. PyrS2″ = (S)-3-amino-1-((pent-4-en-1-yloxy)carbonyl)pyrrolidine-3-carboxylic acid (stapling residue), C=CCCCOC(=O)N1CC[C@@](N[*:1])(C(=O)[*:2])C1; B5(4) = 2,2-bis(4-pentenyl)glycine = 2-amino-2-(pent-4-en-1-yl)hept-6-enoic acid (stitching residue), C=CCCCC(CCCC=C)(N[*:1])C(=O)[*:2]; B5(5) = 2,2-bis(4-pentenyl)glycine, 2-amino-2-(pent-4-en-1-yl)hept-6-enoic acid (stitching residue), C=CCCCC(CCCC=C)(N[*:1])C(=O)[*:2]; B5(21) = 2-amino-2-(pent-4-en-1-yl)hept-6-enoic acid, bis(4-pentenyl)glycine (stitching residue), C=CCCCC(CCCC=C)(N[*:1])C(=O)[*:2]; TfeGA = (S)-2-amino-3-((carboxymethyl)(2,2,2-trifluoroethyl)amino)propanoic acid, O=C([C@H](CN(CC(=O)[*:3])CC(F)(F)F)N[*:1])[*:2]; (EtSSpy)AspE = (S)-2-amino-4-oxo-4-(2-(pyridin-2-yldisulfaneyl)ethoxy)butanoic acid, O=C(C[C@H](N[*:1])C(=O)[*:2])OCCSSc1ccccn1; PyrS2 = (S)-3-amino-1-((pent-4-en-1-yloxy)carbonyl)pyrrolidine-3-carboxylic acid, C=CCCCOC(=O)N1CC[C@@](N[*:1])(C(=O)[*:2])C1; B5(12) = 2-amino-2-(pent-4-en-1-yl)hept-6-enoic acid (two olefin side chains), C=CCCCC(CCCC=C)(N[*:1])C(=O)[*:2]; B5(22) = 2-amino-2-(pent-4-en-1-yl)hept-6-enoic acid (two alkene side chains), C=CCCCC(CCCC=C)(N[*:1])C(=O)[*:2]; AspSH = (S)-2-amino-4-mercapto-4-oxobutanoic acid, O=C(C[C@H](N[*:1])C(=O)[*:2])S[*:3]; B5 = 2-amino-2-(pent-4-en-1-yl)hept-6-enoic acid, C=CCCCC(CCCC=C)(N[*:1])C(=O)[*:2]; Trp(1-Me) = Cn1cc(C[C@H](N)C(=O)O)c2ccccc21; Phe(2-Cl) = N[C@@H](Cc1ccccc1Cl)C(=O)O; Bta = N[C@@H](Cc1csc2ccccc12)C(=O)O; αAllylPro = C=CC[C@@]1(C(=O)O)CCCN1; tBuAla = CC(C)(C)C[C@H](N)C(=O)O; 3Thi = N[C@@H](Cc1ccsc1)C(=O)O; S8 = C=CCCCCCC[C@](C)(N)C(=O)O; hLeu = CC(C)CC[C@H](N)C(=O)O; hSer = N[C@@H](CCO)C(=O)O; Nle = CCCC[C@H](N)C(=O)O; Abu = CC[C@H](N)C(=O)O

Sequence of beta-catenin (Homo sapiens (Human)) (P35222 whole entry): as the sequence (P35222 whole entry, one chain of several) above

With Ac-[αAllylPro]D[tBuAla][B5(5)]DDAAFL[PyrS2″][Phe(2-Cl)][Bta]L-NH2 (staple 1-4, 4-11) [I-1417], the concentration giving a half-maximal response (EC50) in assay [1] is 198 nM. In assay [2], this molecule had an IC50 of 198 nM. Turning to Ac-[αAllylPro]DS[B5(21)]DDAAFL[PyrS2″][3Thi][Bta]L-NH2 (staple 1-4, 4-11) [I-1414], the half-maximal effective concentration (EC50) in [1] came to 84 nM. This molecule also registered an IC50 in assay [2] of 84 nM.

Consider Ac-[αAllylPro]D[Abu][B5]DDAAFN[S8]F[Bta]H-NH2 (staple 1-4, 4-11) [I-575], for which the 50% effective concentration (EC50) in assay [3] was determined as 21 nM. The molecule also yielded an IC50 in assay [4] of 21 nM. In turn, Ac-[αAllylPro]D[Nle][B5(5)]DDAAFL[PyrS2″][Phe(2-Cl)][Bta]L-NH2 (staple 1-4, 4-11; also: staple isomer, earlier eluting HPLC peak) [I-1420] came in with an EC50 in [1] of 124 nM. Further, the concentration for half-maximal inhibition (IC50) in assay [2] was determined as 124 nM. Ac-[αAllylPro]D[hLeu][B5(5)]DDAAFN[S8]F[Bta]H-NH2 (staple 1-4, 4-11) [I-584]: the EC50 in assay [3] was 33 nM. In assay [4], this molecule gave an IC50 of 33 nM.

Take Ac-[αAllylPro][(EtSSpy)AspE][tBuAla][B5]DDAAFN[PyrS2][Phe(2-Cl)][Bta]Q-NH2 (staple 1-4, 4-11; also: earlier-eluting isomer) [I-1723]: in assay [5], the 50% inhibitory concentration (IC50) turned out to be 62 nM. Take Ac-[αAllylPro]D[tBuAla][B5(4)]NTAAFN[PyrS2″][3Thi][Bta]N-NH2 (staple 1-4, 4-11) [I-1746]: in assay [5], the IC50 is 235 nM. In the case of Ac-[αAllylPro]D[Nle][B5(5)]DDAAFL[PyrS2″][Phe(2-Cl)][Bta]L-NH2 (staple 1-4, 4-11; also: staple isomer of later HPLC peak) [I-1421], the EC50 in assay [1] was found to be 134 nM. This molecule also showed an IC50 in assay [2] of 134 nM. Consider Ac-[αAllylPro][AspSH][tBuAla][B5]DDAAFN[PyrS2][Phe(2-Cl)][Bta]Q-NH2 (staple 1-4, 4-11; not fully specified) [I-1722], for which the IC50 in assay [5] was found to be 135 nM. For the molecule Ac-[αAllylPro]D[tBuAla][B5(4)]NTAAFN[PyrS2″][3Thi][Bta]F-NH2 (staple 1-4, 4-11) [I-1744], the IC50 in [5] was determined as 363 nM. As to Ac-[αAllylPro]D[tBuAla][B5(4)]NTAAFN[PyrS2″][3Thi][Bta]T-NH2 (staple 1-4, 4-11) [I-1745], the IC50 in assay [5] stood at 402 nM.

On to Ac-[αAllylPro]D[tBuAla][B5(22)]DDAAFL[PyrS2][3Thi][Trp(1-Me)]Q-NH2 (staple 1-4, 4-11) [I-1433], for which the EC50 in assay [1] was 71 nM. For the same molecule, the 50% inhibitory concentration (IC50) in assay [2] was found to be 71 nM.

In assay [6], Ac-[αAllylPro]D[Abu][B5(4)]DEAAFQ[S8]F[Bta]Q-NH2 (staple 1-4, 4-11) [I-569] yielded an EC50 of 42 nM. This molecule also displayed an IC50 in assay [4] of 42 nM. In the case of Ac-[αAllylPro]D[tBuAla][B5(4)]DEAAFN[S8][3Thi][Bta]Q-NH2 (staple 1-4, 4-11; not fully specified) [I-683], the IC50 in the assay with Bcat-Halo is 6700 nM; in [7] it was 19 nM. Ac-[αAllylPro]D[tBuAla][B5(4)]NTAAFN[PyrS2″][3Thi][Bta]R-NH2 (staple 1-4, 4-11) [I-1743]: the IC50 in assay [5] stood at 469 nM. For the molecule Ac-[αAllylPro]D[tBuAla][B5(4)]NTAAFN[PyrS2″][3Thi][Bta]-NH2 (staple 1-4, 4-11) [I-1742], in assay [5], the concentration for half-maximal inhibition (IC50) turned out to be 867 nM.

With Ac-[αAllylPro]D[tBuAla][B5(4)]NTAAFW[PyrS2″][3Thi][Bta]Q-NH2 (staple 1-4, 4-11) [I-1741], in assay [5], the IC50 stood at 4390 nM.

In the case of Ac-[αAllylPro]D[tBuAla][B5(4)]DDAAFL[PyrS2][3Thi]WQ-NH2 (staple 1-4, 4-11) [I-1431], the EC50 in assay [1] worked out at 34 nM. The IC50 in assay [2] was 44 nM. Take Ac-[αAllylPro]D[tBuAla][B5(4)]DEAAFN[PyrS2″]F[Bta]Q-NH2 (staple 1-4, 4-11; not fully specified) [I-684]: the results for the IC50 (in the assay with Bcat-Halo; in assay [7]) were 14300 nM and 15 nM, respectively. Moreover, the EC50 in [8] was determined as 15 nM. As for Ac-[αAllylPro]D[tBuAla][B5(22)]DDAAFL[PyrS2][3Thi][Trp(1-Me)]S-NH2 (staple 1-4, 4-11) [I-1434], the EC50 in assay [1] was determined as 83 nM. In assay [2], this molecule came in with an IC50 of 83 nM.

Regarding Ac-[αAllylPro]D[tBuAla][B5(5)]D[TfeGA]AAFL[PyrS2″][3Thi][Bta]L-NH2 (staple 1-4, 4-11) [I-1747], the half-inhibitory concentration (IC50) in assay [5] came out at 187 nM. Ac-[αAllylPro]D[tBuAla][B5(4)]DDAAFL[PyrS2][3Thi]WS-NH2 (staple 1-4, 4-11) [I-1432] had an EC50 in assay [1] of 27 nM. Moreover, the IC50 in assay [2] worked out at 27 nM. Consider Ac-[αAllylPro]D[tBuAla][B5(4)]DDAAFL[S8][Phe(2-Cl)][Bta][hSer]-NH2 (staple 1-4, 4-11) [I-1196], for which the EC50 in assay [9] came to 85 nM. For the same molecule, the half-inhibitory concentration (IC50) in [10] is 85 nM. As for Ac-[αAllylPro]DT[B5(5)]DDAAFL[PyrS2″][3Thi][Bta]L-NH2 (staple 1-4, 4-11) [I-1415], in [1], the EC50 was found to be 72 nM. In [2], this molecule returned an IC50 of 72 nM. On to Ac-[αAllylPro]D[Abu][B5(4)]DEAAFQ[S8]F[Bta]H-NH2 (staple 1-4, 4-11) [I-570], for which the EC50 in assay [6] came to 56 nM. This molecule gave an IC50 in assay [4] of 56 nM. On to Ac-[αAllylPro][(EtSSpy)AspE][tBuAla][B5]DDAAFN[PyrS2][Phe(2-Cl)][Bta]Q-NH2 (staple 1-4, 4-11; not fully specified) [I-1724], for which the IC50 in [5] was 551 nM.

In the case of Ac-[αAllylPro]D[Abu][B5(4)]DEAAFQ[S8]F[Bta]Q-NH2 (staple 1-4, 4-11) [I-568], the EC50 in assay [6] was 73 nM. In assay [4], the IC50 came out at 73 nM. The molecule Ac-[αAllylPro]D[hLeu][B5(5)]DDAAFN[S8]F[Bta]H-NH2 (staple 1-4, 4-11; also: staple isomer, earlier eluting HPLC peak) [I-583] yielded an EC50 in assay [3] of 69 nM. Also, the IC50 in assay [4] is 69 nM. With Ac-[αAllylPro]D[tBuAla][B5(4)]DEAAFN[PyrS2″]F[Bta]Q-NH2 (staple 1-4, 4-11; not fully specified) [I-685], the figures for the IC50 (with Bcat-Halo; in assay [7]) were 19400 nM and 25 nM, respectively. Moreover, the EC50 in [8] amounted to 25 nM.

As to Ac-[αAllylPro]D[tBuAla][B5(5)]DDAAFL[PyrS2″][Phe(2-Cl)][Bta]L-NH2 (staple 1-4, 4-11; also: staple isomer, earlier eluting HPLC peak) [I-1416], the EC50 in assay [1] turned out to be 57 nM. For the same molecule, in assay [2], the IC50 turned out to be 57 nM.

For the origin of these results see patent US20240116985A1, “STAPLED PEPTIDES AND METHODS THEREOF” (priority 2020, published 2024).
